System: MS2 coat protein
Assay: apparent KD of MS2 coat protein; higher = weaker reporter binding
Details: Eterna round: R107
Outline: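 Normalised binding curves from single clusters were fitted, and the median fit for each design is given as apparent KD. The clusters held designed RNA switches transcribed on-chip from Illumina sequencing clusters. These were titrated with SNAP-549-labelled MS2 coat protein (twofold steps from 0.7 or 1.5 nM to 3 µM, 0.8–1.5 h to 10–20 min per step) in 100 mM Tris-HCl pH 7.5, 80 mM KCl, 4 mM MgCl2, without or with constant ligand.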

[1] = input ligand: theophylline 20 uM
[2] = input ligand: theophylline 2 mM
[3] = input ligand: tryptophan 2.4 mM

| Sequence | apparent KD of MS2 coat protein (input ligand: arginine 13.2 mM) | apparent KD of MS2 coat protein (input ligand: none) | apparent KD of MS2 coat protein [1] | apparent KD of MS2 coat protein [2] | apparent KD of MS2 coat protein [3] |
| --- | --- | --- | --- | --- | --- |
| ACAUGAGGAUCACCCAUGUGAGAUAGGGAAGGAGCGCAGGAGGAUGCAGGUAGGUCGCCCACAUGAGGAUCACCCGUGUCUGGAG [#11 Exclusion - Arginine A] | 33.2 nM | 43.4 nM | 33 nM | 62.4 nM | 33.1 nM |
| AGUCACUCGAGGUGAUCUGACGAGUGGCAACGAGGACCGGUACGGCCGCCACUCGAAUAAACAUGAGGAUCACCCAUGUACAAAU [T''-M'-T'-T-MS2 - Design 11] | 54 nM | – | 216 nM | 626 nM | – |
| ACAUUGCGCUCGGCCGCCACUGGCUUAUGAUUAUAAGCAUUAAUGAACAUGAGGAUCACCCAUGUCAGGACCGGGAGCGAACCAU [SSTryp B #7] | 13.6 nM | – | 17.7 nM | 14.9 nM | – |
| ACUUUGUCGGGUGAUACCAGCCUCGGCAAAUCUCGUGCCGAACAUGAGGAUCACCCAUGUGGCCCUUGGCAGCACAUGACAACUC [Cezara] | 26.3 nM | – | 546 nM | – | 912 nM |
| GGCCAAAAGGCGGCCGCCACUCAAGAGUAGCAUGGAAAGACAUGAGGAUCACCCAUGUAAAGAAAGAGGACCGGGCCAAAAGGCC | 28.4 nM | 117 nM | 141 nM | 262 nM | 193 nM |
| UGUAUGUGAUUUGAUACCAGACCAGCUGGUGGUACCUGAGGAACACCCAGGUAGGUUUGGGUCCCUUGGCAGCAAAUCGCAUACU [SS Theo B #24 Ms7] | 36.2 nM | – | 34.4 nM | 21.4 nM | 33.3 nM |
| AACAUGAGGAUCACCCAUGUGUCCUCGAAACGAGGACCGGUACGGCCGCCACUCGAGCUAUGUUGACGAAAAGUCAGCAUAGCAA [Mat - Exclusion - Trytophan A - D13] | 123 nM | 276 nM | 316 nM | 374 nM | 1080 nM |
| AAUAAUAACUGAAGGAGCGUCUAUAUUACAUGAGGAUCACCCAUGUUUAUAUGGUAUUAUAGACAGGUAGGUCGCAGAUUUUUUA [JR_SSArginiB_Sub016] | 14.5 nM | 16.6 nM | 22.1 nM | 18.6 nM | 16.3 nM |
| CUAUAUUUAUCGGCCGCCACUUACUCAUGAGGUAACAACAUGAGGAUCACCCAUGUUUGAGGAUCAAGGACCGGGAUAAAUAUAG [AstrosSSTryB#17] | 25.4 nM | – | 34.2 nM | 31 nM | – |
| UUCACAUGAUCUGAAUAUACAGAAAAGAAACGAGGACCGGUACGGCCGCCACUCGUGCCGGAAACAUGAGGAUCACCCAUGUGUU [AK1.3 Exclusion TrypA mod IceBolt] | 19.7 nM | – | 28.5 nM | 26.2 nM | – |
| AUAUAUACAUGAGGAUCACCCAUGUUAUUACGAGGACCGGUACGGCCGCCACUCGAUAGAGUAGAAGUAAAUUGUAAUUCAUGUU [JR_ExcTryptoA_Sub016] | 13.8 nM | – | 15.6 nM | 11.6 nM | – |
| CACGGAUGAGUGGAUCACCCUCAUAAUAACCGAGGACCGGUACGGCCGCCACUCGAAAACCGUGACCUGUACGAAAAGUGCAGGA | 28 nM | 33.5 nM | 486 nM | 782 nM | 708 nM |
| UUGCAGAUCGGAAAGGUCCUGCUGUUCGAAGGAGCGGUAAAAGUACCAGGUAGGUCGCGAACAUGAGGAUCACCCAUGUUUGCAA [Usmaenbi] | 11.3 nM | 22.3 nM | 28.2 nM | 20.2 nM | 21.1 nM |
| ACAUGAGGAUCACCCAUGUAACAAACAGAAGGAGCGUGAAAGAACACAGGUAGGUCGCUGAACUUAAUGAAUACUCAUUAGAUCC [JR_Nu_SSArginiA_Sub027] | 13.4 nM | 14.7 nM | 18.9 nM | 15.8 nM | 14.6 nM |
| AAAUAAAUACAUGAGGAUCACCCAUGUGAAGGAGCGCGCGUUAGCGCAGGUAGGUCGCACAUGAAUAACUCCGCGCGAAAGCGCA [MAT - Exclusion Arginine A - Mod of Eli - D11] | 11.8 nM | 17.4 nM | 23.7 nM | 19.6 nM | 16.4 nM |
| AGUCUUGAACGAAGGAGCGACGUACAUGAGGAUCACCCAUGUGGAGCGAAAGCUCCGUAACGUCAGGUAGGUCGCGUUCGAGACA [Omei Arginine B SS A v3] | 6.89 nM | 9.25 nM | 15.6 nM | 13.1 nM | 12.5 nM |
| GGAUAGGACAGAAGGAGCGACAUGGCAGAAACUGCAAUCCUCCUACACGAGGAUCACCCGUGUCAGGUAGGUCGCUGUCCUAUCG [ArgXB 12 #Zipper #MS2Left #StaticStem #Blueprint] | 25.6 nM | 24.7 nM | 34.8 nM | 36.9 nM | 27.4 nM |
| CGUAUUGUAACUGAUACCAGUGUACUGACAUGAGGAUCACCCAUGUUGGGUUUUGUUGUACACCCUUGGCAGCAGAAUCAAUACG [AstrosExyTheB#5] | 59.4 nM | – | 74.2 nM | – | 65.8 nM |
| GCGAUGGAGCGAAGGAGCGUGCUAGUACAUGAGGAUCACCCAUGUGAGUCGCAUCGCUAAGCACAGGUAGGUCGCGCUCCAUCGC [EAB NP+V+V2 #9] | 44.6 nM | 94.2 nM | 122 nM | 145 nM | 87.6 nM |
| GGGCCCGGCCGAAAGGCCGGGCCCGCUGAAGGAGCGGGAAAUAACCCAGGUAGGUCGCAGAGAUCCACAUGAGGAUCACCCAUGU [#26 Exclusion - Arginine A] | 38.7 nM | 26.5 nM | 64.1 nM | 68.1 nM | 44.4 nM |
| GAGCUGAUGUAGAAAUUUUAUUUAUGAGAUACCAGUACAGAAAUGUACCCUUGGCAGCUCAUUUUUACAUGAGGAUCACCCAUGU [Ex Theophylline A 14] | 13.5 nM | – | 12.8 nM | – | 13.3 nM |
| CUAUAUGGAAACAUAUAGAAGCGAAAGCAGCGAGGACCGGUACGGCCGCCACUCGCAGAGUGGUGGACAUGAGGAUCACCCAUGU [Design 2] | 43.8 nM | 83.2 nM | 111 nM | 74.6 nM | 40 nM |
| AUACCUAAUGUUACAUUUACCUUAUCAGAUACCAGACUUUACGUUGUCCCUUGGCAGCUGUAUCACAUGAGGAUCACCCAUGUUG [JR_SSTheophyA_Sub010] | 17.1 nM | – | 19.2 nM | – | 15.3 nM |
| ACCGGCACCUAGGAUACCAGAUCCACAACAAACAUGAGGAUCACCCAUGUAUAAAGUGGUAUCCCUUGGCAGCCUGUGACAAUCG [theeternabot_sameState_MS2_Theo_B_19] | 17 nM | – | 21.4 nM | – | 15.8 nM |
| AAGGUGAUCCUCGAUACCAGCUCAACAUGAGGAUCACCCAUGUAAGCCUGGAAACAGGCGAGCCCUUGGCAGCGAGUUACAUCAA [(M)'-(Theo1)-(Ms2)-(Theo2)-(M'')] | 32.9 nM | – | 78.2 nM | – | 18.6 nM |
| ACAUGAAUAUCAUCUAUUUAUUGUACUGAAGGAGCGUCCAUGAGGACAGGUAGGUCGCAGUGUAAAACAUGAGGAUCACCCAUGU [Same State - Arginine A #1] | 22.6 nM | 22.2 nM | 36.6 nM | 29 nM | 23 nM |
| ACGUAAUGCGGAAGGAGCGUCAUUUUAAAACAUGAGGAUCACCCAUGUAAUAUUUUUGUGUGACAGGUAGGUCGCCGAAGUACGA [#07 Same State - Arginine B] | 14.4 nM | 12.9 nM | 19.3 nM | 14.4 nM | 13.6 nM |
| GGGCAAGAGGGAAGGAGCGUUAGCUGAGUCACAUGAGGAUCACCCAUGUCGCACAUAGUAUGACAGGUAGGUCGCCCUCUACCCU [SS-ArgB14] | 17.7 nM | 15.6 nM | 28.7 nM | 18.2 nM | 16.8 nM |
| CCGUUUUAUGGCGACAUAGGGCGGACUGAAGGAGCGGUAUAAAAGCCAGGUAGGUCGCAGAGAUCCACAUGAGGAUCACCCAUGU [!0.aA] | 29.4 nM | 39.7 nM | 45.8 nM | 41 nM | 51 nM |
| AAGUGGCACGGAAGGAGCGAGUUUACCUAUUACAUGAGGAUCACCCAUGUGUAUAAUGGGACUCAGGUAGGUCGCCGUUGUCACU [Same State Arginine B GF 25] | 31.5 nM | 35.7 nM | 49 nM | 44.3 nM | 31.6 nM |

Reference: the supplement of paper PMC9170038
